In patent US20210371505A1:

Biological target: Hemagglutinin of A/Wisconsin/67/2005 (H3N2) overexpressed on 3T3 cells (Influenza A virus A/Wisconsin/67/2005 (H3N2))
Assay: cell-based or functional assay

B1: H1H14612N2 (antibody, V domains shown)
VH: EVQLVESGGGLVKPGGSLRLSCAASGFSFSGFSMNWVRQAPGKGLEWVSSISTSGNYMYYADSVKGRFTISRDNAKKSFSLQMNSLRAEDSAIYYCARGGGYNWNLFDYWGQGSLVTVSS
VL: EIVLTQSPGTLSLSPGERATLSCRASQSLNSNYLAWYQQKPGQAPRLLIYGASSRATGIPDRFSGSGSGADFTLTISRLESEDFAVYYCQQYGNSPLTFGGGTKVEIK
What does the source list for B1?
EC50, ADCC with human donor PBMCs (CytoTox-Glo): 176 pM; EC50, FcγRIIIA activation in the ADCC-Glo reporter bioassay (Promega): 688 pM
